B1: FBXO39 (parent)
chain: PSRVHASEVESAVWYVKKFGRYLE
B2: MATN2 (parent)
chain: TDDSYSCHCLKGFTLNPDKKTCRR

Variants of: B1
Test: protein stability index of a GFP-peptide fusion (GPS, HEK-293T) (PSI 1-6); higher = more stable
Conditions: c terminus: a fixed tail appended
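Further: lentivirally expressed fusions sorted by FACS into six bins by GFP to DsRed ratio, PSI derived from sequencing read proportions per bin multiplied by bin number.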

Protein stability index: each site, then its substitutions
K17: Q 2.27, D 2.25, M 1.91, V 1.9, S 2.84
W14: A 2.96, M 3.3, H 3.44
S11: G 1.84, R 2.07, Q 1.64, A 2.03, T 2.03
V4: D 2.52, A 2.29, G 2.19, F 1.54
K18: A 1.65, N 1.88, H 1.89, D 2.33, V 1.75, F 1.95
S7: K 1.67, Y 2.4, Q 2.36
S2: W 1.89, Y 2.48, G 1.94, E 2.29, H 1.76, A 1.71, P 2.05
V9: H 2.29, A 2.09, D 2.96, I 2.01, W 1.61, C 2.48
Y22: H 2.69, Q 2.74, E 2.58, N 2.71, L 1.62
H5: R 1.36, T 1.43
P1: K 2.21, W 2.5
E24: T 2.55, Y 2.2, D 1.9, S 1.83
R21: K 1.87, H 2.04, W 2.08, D 3, E 2.5, Q 2.09, C 1.47
A12: D 2.13, L 2.08, T 2.08, S 2.18
L23: V 2.49, W 2.08, D 2.9, C 2.26, F 2.05, T 2.32
A6: D 2.46
G20: N 2.38, V 1.96, W 2.97
E10: V 1.54, S 2.51, H 1.65
Y15: K 2.53, A 2.07, T 2.09, H 2.65, Q 2.74, W 1.15, C 1.74
F19: E 3.76, R 2.88, Q 2.79, Y 2.5
R3: K 1.83, H 1.98, V 2.36, F 1.49, S 2.1
V13: K 1.78, C 1.95, D 2.9
V16: W 2.27, N 3.18, P 2.54
E8: W 1.42, H 2.38, Y 3.1, G 1.7, T 1.7, F 4.46, K 2.76, S 1.68, V 1.46

Variants of: B2
Test: as above
Conditions: c terminus: a fixed tail appended

Protein stability index: each site, then its substitutions
D3: Y 1.76, S 2.24, C 2.17, N 2.1, T 2.01, H 2.15, W 1.41, I 1.91, L 2.36, G 2.36, P 2.93, F 1.67, K 1.93, M 2.31, Q 2.13, R 2.2, E 1.73, V 2.41, A 2.24
H8: Q 2.18, P 1.63, R 2.51, E 2.84, L 2.4, T 2.08, G 2.76, S 2.3, C 2.05, W 2.63, F 2.14, Y 2.71, K 4.02, V 2.33, A 1.66, N 1.91, D 2.05, I 2.27, M 2.92
L10: D 3.55, W 2.98, Y 2.32, H 1.86, S 2.55, R 1.65, I 2.15, T 1.93, C 3.11, M 1.9, E 2.22, A 2.48, P 3.56, N 3.04, F 2.46, G 2.91, Q 1.77, V 1.72, K 2.63
D2: P 1.66, S 2.11, I 2.02, W 2.24, K 2.85, E 1.98, H 2.15, Y 1.26, N 2.32, L 2.81, A 1.88, F 1.41, G 2.98, R 2.29, M 2.09, Q 1.82, C 1.88, T 2.08
G12: P 2.63, C 2.54, L 2.45, F 1.98, E 2.27, M 1.9, S 2.1, W 2.01, H 2.91, I 1.78, R 2.08, Q 2.85, K 2.41, Y 1.73, A 2.45, N 2.24, V 1.79, D 2.19, T 2.39
S4: E 2.79, C 1.8, M 2.22, Y 1.77, H 2.66, N 1.23, P 2.64, R 2.03, K 2.56, A 1.34, L 1.84, W 1.81, V 2.22, Q 2.3, T 2.04, D 2, I 2.87, F 1.83, G 1.88
C7: I 3.9, S 4.54, A 4.59, W 3.21, H 3.54, T 4.54, L 4.59, M 4.22, N 4.38, Y 3.71, F 3.96, E 4.61, K 4.21, D 4.78, G 4.45, P 3.65, Q 4.27, R 3.88, V 4.28
F13: E 2.45, C 2.39, A 2.88, D 2.27
Y5: L 3.53, Q 3.42, P 2.14, H 2.66, S 2.66, F 2.36, G 2.69, A 3.04, M 3.58, D 2.72, W 2.23, V 2.86, E 2.74, R 2, I 2.06, T 2.58, N 3.36, K 2.65
T1: G 2.71, Q 1.75, L 2.36, K 1.75, C 2, W 2.35, N 1.86, I 2.1, M 2.47, H 2.7, P 2.81, A 2.47, D 2.55, S 2.63, R 2.95, F 2.21, E 2.09, V 3.42
C9: N 4.57, R 3.88, E 4.37, T 3.24, V 3.73, G 4.47, W 3.79, K 4.03, M 3.96, Q 4.1, F 3.47, S 4.48, Y 3.88, H 3.75, A 4.6, P 4.53, L 3.93, I 3.77
S6: K 3.07, P 2.5, G 2.4, C 2.55, R 2.4, W 2.32, T 2.19, E 2.31, Q 1.76, Y 2.12, H 2.55, N 1.93, I 1.89, M 1.68, V 3.42, D 2.94, F 1.26, L 2.15
K11: C 2.51, G 2.78, I 2.08, A 2.27, T 1.96, E 2.87, H 2.49, F 2.27, M 1.61, N 2.15, D 2.44, W 2.2, R 2.04, V 2.06, P 2.36, S 2.23, Y 2.4, Q 1.83, L 2.04

— the supplement of paper PMC10567573
